How the values were obtained:
[1] = target: ARF3, purified from E. coli, preloaded with BODIPY FL GDP (UniProt P61204)
Chain of ARF3, purified from E. coli, preloaded with BODIPY FL GDP (P61204 whole entry): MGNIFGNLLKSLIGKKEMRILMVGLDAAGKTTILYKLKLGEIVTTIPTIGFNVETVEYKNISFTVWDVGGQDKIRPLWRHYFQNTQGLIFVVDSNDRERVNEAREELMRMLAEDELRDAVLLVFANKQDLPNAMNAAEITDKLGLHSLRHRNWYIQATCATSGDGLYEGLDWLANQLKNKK

C9ORF72 isoform A, 2x HA-tagged, in HEK cell lysate
guanine exchange activity (BODIPY-GDP fluorescence) [1]: C9ORF72 isoforms A and B stimulated guanine exchange on ARF3
guanine exchange activity (BODIPY-GDP fluorescence) (the other GTPases tested): Significant activity was not observed using both C9ORF72 isoforms on the other GTPases tested

From US20180161335
